{
  "source": "patent US20210268105A1",
  "about": "(HEXAMER THERAPEUTICS, published 2021)",
  "proteins": {"B1": {"name": "Acetyl-MD-(SEQ ID NO: 15) (peptide)", "peptide": "Ac-MDLRSIGKDLRSIGRDLRSIGKDLRSIGRD", "notes": "After it is dissolved in 1xPBS, six copies self-assemble into a hexamer (expected 20.7 kDa); also called self-assembled peptide"}},
  "target": "the molecule itself",
  "assay": "Blue native PAGE of the peptide dissolved in 1xPBS; self-association into a hexamer",
  "experimental": "The peptide (SEQ ID NO: 15) was synthesized by SPPS and lyophilized for storage. The peptide was dissolved in 1×PBS and then loaded onto a blue native PAGE gel and size fractionated by electrophoresis through a 4-16% acrylamide gradient gel for 90 min at 150 V (constant). The gel was fixed in methanol:acetic acid:water and then rinsed in the same solution to destain. Lane 1 is BSA as a reference protein, and Lane 2 is the self-assembled hexamer. MW standards (which are not shown) are on the right. BSA is 66 kDa and the hexamer has an expected size of 20.7 kDa.\nExperiments were performed to confirm that a hexamer forms following hydration of the monomer, elucidate the solubility of epitope coupled hexamers, determine the maximum density of epitope coupling, and confirm that a hexameric structure is maintained following coupling of the epitope. A representative peptide, SEQ ID NO: 15, was synthesized using the protocols previously described. A methionine and aspartic acid residue were placed on the N-terminus, and the methionine residue was protected by acetylation to form Acetyl-MD-(SEQ ID NO: 15). Following SPPS, the peptide was lyophilized for storage. To show self-assembly, the peptide was dissolved in 1×PBS buffer, incubated at room temperature for 5 min, and loaded onto a Blue NativePAGE Novex Bis-Tris Gel using the system purchased from Life Technologies. […]",
  "note": "Where no end group is shown, it is not given here.",
  "data": [
    {"protein": "B1", "values": [
      {"measurement": "binding result", "result": "binds"}
    ]}
  ]
}
